Experimental data from paper PMC3580236.

Target: T1, Rev1 G193R (1-746) (Saccharomyces cerevisiae (expression …, UniProt P12689 1-746, G193R))
T1 sequence: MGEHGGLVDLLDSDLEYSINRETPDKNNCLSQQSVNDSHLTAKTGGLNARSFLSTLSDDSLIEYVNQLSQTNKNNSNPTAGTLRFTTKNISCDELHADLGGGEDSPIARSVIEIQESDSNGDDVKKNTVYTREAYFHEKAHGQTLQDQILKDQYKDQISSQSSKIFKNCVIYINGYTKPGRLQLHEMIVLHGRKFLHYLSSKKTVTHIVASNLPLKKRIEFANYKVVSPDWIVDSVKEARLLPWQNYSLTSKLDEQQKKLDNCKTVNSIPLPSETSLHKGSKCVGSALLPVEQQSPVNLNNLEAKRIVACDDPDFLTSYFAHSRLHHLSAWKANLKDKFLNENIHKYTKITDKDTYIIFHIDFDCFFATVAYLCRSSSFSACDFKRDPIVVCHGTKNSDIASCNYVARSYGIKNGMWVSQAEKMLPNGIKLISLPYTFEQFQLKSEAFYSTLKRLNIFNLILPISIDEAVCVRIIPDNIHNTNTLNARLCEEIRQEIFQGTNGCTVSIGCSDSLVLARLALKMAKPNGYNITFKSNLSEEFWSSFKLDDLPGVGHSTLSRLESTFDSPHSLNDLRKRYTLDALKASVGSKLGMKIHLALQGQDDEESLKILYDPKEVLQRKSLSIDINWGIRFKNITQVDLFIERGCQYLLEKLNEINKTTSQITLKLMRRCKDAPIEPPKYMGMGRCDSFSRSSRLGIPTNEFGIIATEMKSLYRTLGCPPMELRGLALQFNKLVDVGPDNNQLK
Experiment: pre-steady-state burst amplitude titration

B1: 24/45-mer primer-template (dsDNA)
DNA 1: GCCTCGCAGCCGTCCAACCAACTC
DNA 2: GGACGGCATTGGATCGACCTGGAGTTGGTTGGACGGCTGCGAGGC
Kd: 16 ± 5 nM
